Consider 67 sequences from the supplement of paper PMC10126150.

For this data set, the system named is ATP. In words: switch fluorescence ratio, 500 uM ATP over buffer (Cy3 cluster intensity, sum of 5 cycles each) (fold (ratio)); higher = stronger signal-on switching upon ATP binding; sequences stand for … in TCGTCGGCAGCGTCAGATGTGTATAAGAGACAGTTTTTTTTTTTTTTTTTTTTTTTTT…TC. The following applies: aptamer strand: ATP DNA aptamer (quencher-CACCTGGGGGAGTATTGCGGAGGAAGG + anchor), 100 nM annealed; ATP concentration: 500 uM. Summed up:
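Switching-strand clusters labelled with Cy3 on a modified Illumina MiSeq flow-cell were annealed to 100 nM quencher-labelled ATP aptamer, imaged in selection buffer, and re-imaged after 15 min with 500 uM ATP at 22 °C. This was done over five cycles with NaOH stripping and re-annealing in between. The fluorescence ratio is summed target-cycle over summed buffer-cycle Cy3 intensity per cluster, averaged per switch-domain sequence, excluding clusters outside 100-1000 RFU.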

± gives the standard deviation of the averaged measurements.
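Also: ATP exposure 15 min at 22 °C before imaging.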

Turning to TTTTGGGACG, the switch fluorescence ratio is 0.993 ± 0.082.

Consider TCTGGTTGTG, for which the switch fluorescence ratio is 1.01 ± 0.016.

Consider GCGTCAGTCG, for which the switch fluorescence ratio was found to be 0.949 ± 0.015.

Regarding CAGGGGGTTG, the switch fluorescence ratio is 0.9866 ± 0.0018.

In the case of CGGAGGTTTT, the switch fluorescence ratio amounted to 0.993 ± 0.049.

As to AGATAGGGCA, the switch fluorescence ratio was determined as 0.994 ± 0.032.

Take GACGGGGTGC: the switch fluorescence ratio was 1.3 ± 0.24.

For the sequence ATGATTATAT, the switch fluorescence ratio was 0.99 ± 0.017.

In the case of AGTTTCGGAA, the switch fluorescence ratio was 1.021 ± 0.0038.

As for GGAACTTAAG, the switch fluorescence ratio was found to be 0.9794 ± 0.0043.

Turning to GAATCGTCG, the switch fluorescence ratio came to 0.983 ± 0.025.

As for TTGGTGTGAC, the switch fluorescence ratio amounted to 1.05 ± 0.065.

Take TGTACGGATT: the switch fluorescence ratio is 1.0016 ± 0.00058.

With GTGGGTCATA, the switch fluorescence ratio was determined as 0.953 ± 0.099.

On to TATATATAAA, for which the switch fluorescence ratio was 1.09 ± 0.087.

TGTTTAGAAA: the switch fluorescence ratio amounted to 1.01 ± 0.014.

As to GGGACGTCGT, the switch fluorescence ratio was found to be 1.04 ± 0.042.

For GGGAATCGTC, the switch fluorescence ratio stood at 0.987 ± 0.04.

On to CAGGGGCTTC, for which the switch fluorescence ratio amounted to 1.02 ± 0.018.

With ACCCAGGTA, the switch fluorescence ratio was 2.1 ± 0.29.

As to TACTTCATCA, the switch fluorescence ratio is 1.03 ± 0.02.

Take GGCGCCATGA: the switch fluorescence ratio amounted to 1.034 ± 0.0036.

Regarding GCGTGTATGA, the switch fluorescence ratio is 1.02 ± 0.033.

Regarding GGTGTCCGGG, the switch fluorescence ratio was found to be 0.9986 ± 0.0019.

In the case of ATTATGAAAG, the switch fluorescence ratio is 0.969 ± 0.056.

With ATTTAATGAA, the switch fluorescence ratio turned out to be 0.982 ± 0.021.

As for ATAATATTGG, the switch fluorescence ratio worked out at 0.995 ± 0.013.

Turning to GGACGTGGGG, the switch fluorescence ratio was 0.953 ± 0.069.

For the sequence CGTCATGCGT, the switch fluorescence ratio was 0.964 ± 0.025.

Consider GGGGGGTACA, for which the switch fluorescence ratio is 1.01 ± 0.047.

As for GGCTTAGAGT, the switch fluorescence ratio came out at 0.971 ± 0.011.

As for CATGCTGGGG, the switch fluorescence ratio turned out to be 0.9941 ± 0.0022.

GACGTCGGTC: the switch fluorescence ratio was 0.9984 ± 0.0089.

In the case of CGCTAGGGTA, the switch fluorescence ratio was determined as 1.04 ± 0.036.

In the case of TGCTATATTT, the switch fluorescence ratio was determined as 1.01 ± 0.024.

For AGCTGATTC, the switch fluorescence ratio is 1.031 ± 0.0099.

TGGAGCCAGG: the switch fluorescence ratio stood at 1.08 ± 0.064.

As to TGGTTGTCCG, the switch fluorescence ratio came to 1.06 ± 0.059.

For the sequence GGTCTGTTTT, the switch fluorescence ratio was found to be 0.992 ± 0.022.

As to GAGGATAAGT, the switch fluorescence ratio amounted to 0.988 ± 0.078.

On to CGGTGGCAGC, for which the switch fluorescence ratio was determined as 0.983 ± 0.038.

For ACTCGATTTT, the switch fluorescence ratio was determined as 1.02 ± 0.033.

Consider CTGGGGGCGG, for which the switch fluorescence ratio amounted to 0.986 ± 0.018.

Turning to TTTTGGCAGA, the switch fluorescence ratio was 0.982 ± 0.047.

As to GCCGAAGTTA, the switch fluorescence ratio stood at 1.12 ± 0.042.

On to GGTAAATTGA, for which the switch fluorescence ratio worked out at 1.04 ± 0.03.

TGTACGGGGG: the switch fluorescence ratio came out at 0.949 ± 0.021.

CTGGGGATGG: the switch fluorescence ratio was 0.995 ± 0.02.

Turning to AGTTGTGTTA, the switch fluorescence ratio turned out to be 1.007 ± 0.0057.

In the case of GGGAGGAGTT, the switch fluorescence ratio stood at 0.9689 ± 0.0067.

For the sequence CCACTGGTGT, the switch fluorescence ratio was 3.92 ± 0.56.

In the case of AAAGTCACAC, the switch fluorescence ratio turned out to be 1.04 ± 0.022.

On to GGCTTTAGTA, for which the switch fluorescence ratio stood at 1.02 ± 0.027.

Regarding CGTTACAAGC, the switch fluorescence ratio was determined as 1.1 ± 0.086.

As to TTCGTTTGTG, the switch fluorescence ratio came to 0.971 ± 0.027.

For GTGATTATGG, the switch fluorescence ratio turned out to be 0.981 ± 0.028.

In the case of GTAGGGGGAG, the switch fluorescence ratio was determined as 0.9884 ± 0.004.

With GAGAACGTAG, the switch fluorescence ratio is 0.9817 ± 0.0066.

As for AAGTGAAGTT, the switch fluorescence ratio came out at 1.002 ± 0.004.

For TTATCGCAGA, the switch fluorescence ratio turned out to be 1 ± 0.015.

As to ATCTGTAGGG, the switch fluorescence ratio stood at 1.023 ± 0.0075.

In the case of ATTGATATGG, the switch fluorescence ratio amounted to 0.981 ± 0.04.

Turning to CTGTCGTTTC, the switch fluorescence ratio was 0.975 ± 0.044.

As for AAAGTCTACA, the switch fluorescence ratio was found to be 1.03 ± 0.024.

Turning to ACAGCTGATG, the switch fluorescence ratio came out at 0.977 ± 0.059.

Consider TTATGCACGG, for which the switch fluorescence ratio turned out to be 1.01 ± 0.044.

For the sequence TTAGAGAGGA, the switch fluorescence ratio worked out at 0.987 ± 0.026.
